The text below walks through data of patent publication US20200239543A1 (ALX ONCOLOGY, published 2020).

Positions count from the first letter of the chain named.

In assay [1] the target is T1, EGFR-ECD (epidermal growth factor receptor extracellular domain produced in HEK293 cells) (UniProt P00533 25-645, limits assumed).
T1 construct: extracellular domain
The assay is described as follows: SPR (Proteon GLC chip), EGFR-ECD injected in the second injection over construct B bound to immobilised CD47.

The target of assay [2] is T2, human CD47 (human, UniProt Q08722 19-139).
T2 construct: extracellular domain; also called CD47 ECD
T2 sequence (Q08722 19-139 limits assumed): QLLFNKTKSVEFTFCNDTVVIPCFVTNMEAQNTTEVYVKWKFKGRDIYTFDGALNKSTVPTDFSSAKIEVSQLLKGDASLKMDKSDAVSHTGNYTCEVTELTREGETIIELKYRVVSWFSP
The assay is described as follows: SPR (Proteon GLC chip), CD47 immobilised by amine coupling, construct injected as analyte in the first injection (100 nM per paragraph 377).

The target of assay [3] is T1, EGFR-ECD (epidermal growth factor …). The assay is described as follows: SPR (Proteon GLC chip), EGFR-ECD injected in the second injection over construct C bound to immobilised CD47.

B1: single-arm SIRP-α-Fc fusion, heterodimer of SEQ ID NO: 139 (an Fc variant) and SEQ ID NO: 142 (a SIRP-α-Fc fusion) (Fc fusion)
chain 1: EEELQIIQPDKSVLVAAGETATLRCTITSLFPVGPIQWFRGAGPGRELIYNQREGPFPRVTTVSDTTKRNNMDFSIRIGAITPADAGTYYCVKFRKGSPDDVEFKSGAGTELSVRAKPSDKTHTCPPCPAPEAAGAPSVFLFPPKPKDTLMISRTPEVTCVVVDVSHEDPEVKFNWYVDGVEVHNAKTKPREEQYASTYRVVSVLTVLHQDWLNGKEYKCKVSNKALPAPIEKTISKAKGQPREPQVYTLPPSREEMTKNQVSLWCLVKGFYPSDIAVEWESNGQPENNYKTTPPVLDSDGSFFLYSKLTVDKSRWQQGNVFSCSVMHEALHNHYTQKSLSLSPGK
chain 2: DKTHTCPPCPAPEAAGAPSVFLFPPKPKDTLMISRTPEVTCVVVDVSHEDPEVKFNWYVDGVEVHNAKTKPREEQYASTYRVVSVLTVLHQDWLNGKEYKCKVSNKALPAPIEKTISKAKGQPREPQVYTLPPSREEMTKNQVSLSCAVKGFYPSDIAVEWESNGQPENNYKTTPPVLDSDGSFFLVSKLTVDKSRWQQGNVFSCSVMHEALHNHYTQKSLSLSPGK
notes: knob and hole heterodimer
Regarding B1, the results for the binding result in assay [1] and in assay [2] were “no binding” and “binds”, respectively.

B2: single-arm SIRP-α-Fc fusion, heterodimer of SEQ ID NO: 139 (an Fc variant) and SEQ ID NO: 138 (a SIRP-α Fc fusion) (Fc fusion)
chain 1: B1 chain 1 with E47V, E54Q, V92I
chain 2: B1 chain 2
notes: knob and hole heterodimer
For the molecule B2, the binding result in assay [3] is recorded as “no binding”; in assay [2], “binds”.
